Here are results for seven molecules from patent US8703452B2, “Extracellular aldonolactonase” (The Regents of the University of California, priority 2010, dated 2014).

Data set [1] addresses S. thermophile aldonolactonase 1 (Thermothelomyces thermophilus, UniProt E5LEX3). The settings on record: substrate specificity. On the procedure: (§1) Aldonolactonase activity was measured as described by Hestrin (21). The reactions were carried out in triplicate in 96-well microtiter plates. Briefly, 100 μL of 100 mM freshly dissolved sugar lactone was immediately mixed with 100 μL of 10 nM aldonolactonase enzyme buffered in 100 mM sodium acetate pH 5.0 for 1 minute at 25° C. The reaction was quenched by adding 40 μL of alkaline hydroxylamine (2.0 M hydroxylamine hydrochloride, 1.5 M sodium hydroxide) for 1 minute. Twenty microliters of 4.0 M hydrochloric acid was then added to acidify the solution and stabilize the sugar hydroxamate. Color was developed by adding 20 μL of 0.5 M ferric chloride (FeCl3) and the absorbance at 540 nm was measured. For all experiments, control measurements were made on control samples where no enzyme was added. The background hydrolysis was subtracted from the total hydrolysis in the presence of enzyme.

The subject of data set [2] is S. thermophile Aldonolactonase 2 (Spoth1189286). As to the kind of experiment: Standard gluconolactonase assay with recombinant S. thermophile aldonolactonase 2. The settings on record: unpurified concentrate, expressed in N. crassa. In kind it is biochemical, Sporotrichum thermophile. As for the experimental part: as §1, with “Lactonase activity on gluconolactone was confirmed using the standard gluconolactonase assay (as described in other sections). The protein was not further purified because the affinity purification tag was removed by endogenous proteases in N. crassa. Aldonolactonase” for “Aldonolactonase”, “Hestrin” left out, “Color was developed by adding 20 μL of 0.5 M ferric chloride (FeCl3) and the absorbance at 540 nm was measured.” left out, “enzyme. This typically amounted to less than 10% of the total lactone.” for “enzyme.”

For data set [3] the following is noted: cited from earlier work.
Data set [4] in a line: pH profile of S. thermophile aldonolactonase 1. In kind it is biochemical. The settings on record: from pH 3.0 to pH 8.0; 10 nM enzyme, 50 mM glucono-δ-lactone, room temperature. On the procedure: FIG. 9 depicts the pH profile of S. thermophile aldonolactonase 1. Reactions were conducted at room temperature for 1 minute with 10 nM aldonolactonase, 50 mM glucono-δ-lactone, and 100 mM buffer. Buffers used included sodium citrate, pH 3.0; sodium acetate, pH 4.0; sodium acetate, pH 5.0; sodium succinate, pH 6.0; HEPES, pH 7.0; and Tris, pH 8.0. Error bars represent the standard deviation of three replicate experiments.

Data set [5] in a line: Aldonolactonase activity of enzyme preparations on glucono-δ-lactone. In kind it is biochemical. The note with it: glucono-δ-lactone as substrate, 25° C., pH 5.0. As for the experimental part:
as §1, with “enzyme. This typically amounted to less than 10% of the total lactone.” for “enzyme.”

Data set [6] in a line: Stability of aldonolactonase activity. In kind it is physicochemical. The text has this: Sporotrichum thermophile is a thermophilic fungus isolated from soil and self-heating compost (3). […] During development of the present disclosure, an enzyme involved in the process of cellulose degradation was isolated from S. thermophile. As disclosed herein, an enzyme containing extracellular aldonolactonase activity was purified, identified, and characterized from the thermophilic ascomycete S. thermophile. The S. thermophile aldonolactonase hydrolyzes hexose δ-lactones over a broad range of pH values. […] (the growth condition for production of the enzyme). The expression profile and kinetic parameters of the S. thermophile aldonolactonase were determined on different substrates. The results disclosed herein provide insight into how S. thermophile utilizes aldonolactonase in nutrient acquisition, especially from hexose δ-lactones and how this enzyme can be utilized for biofuel production.
After 48 hours of growth on complex media containing cellulose, S. thermophile mycelia and residual cellulose were removed from the culture by filtering over 0.2 micron polyethersulfone (PES) filters. The filtered culture broth was then concentrated and buffer exchanged using tangential flow filtration with a 10 kDa molecular weight cut-off (MWCO) PES membrane (Millipore, Billerica, Mass.) into 25 mM 4-(2-hydroxyethyl)-1-piperazineethanesulfonic acid (HEPES) buffer, pH 7.4. […]

Substrate in data set [7]: O=C1O[C@H](CO)[C@@H](O[C@@H]2O[C@H](CO)[C@@H](O)[C@H](O)[C@H]2O)[C@H](O)[C@H]1O
As to the kind of experiment: purified protein, by the assay type. The note with it: other: steady-state kinetic constants; substrate of S. thermophile aldonolactonase 1; pH 5.0; 25.0 °C.

Substrate in data set [8]: O=C1O[C@H](CO)[C@@H](O)[C@H](O)[C@H]1O
Briefly: purified protein, by the assay type.

Substrate in data set [9]: O=C1O[C@H](CO)[C@@H](O[C@@H]2O[C@H](CO)[C@H](O)[C@H](O)[C@H]2O)[C@H](O)[C@H]1O
As to the kind of experiment: purified protein, by the assay type. The note with it: other: steady-state kinetic constants; substrate of S. thermophile aldonolactonase 1; pH 5.0; 25.0 °C.

The mark [10] stands for this setting: other: steady-state kinetic constants, substrate of S. thermophile aldonolactonase 1, pH 5.0, 25.0 °C.

Broadly, the Km is the substrate concentration at which the rate is half of its maximum. A word on the kcat: it is the number of substrate molecules converted per active site and unit of time at saturation. Usually kcat/Km stands for the second-order rate constant that governs catalysis at low substrate concentration.

Take `O=C1O[C@H](CO)[C@@H](O)[C@@H]1O` [arabinolactone]: the “hydrolysis by S. thermophile aldonolactonase 1” value (“hydrolysis” for short) in [1] is on record as “not hydrolyzed”.

Consider `O=C1O[C@H](CO)[C@@H](O[C@@H]2O[C@H](CO)[C@H](O)[C@H](O)[C@H]2O)[C@H](O)[C@H]1O` [D-Lactono-δ-lactone], for which the “hydrolysis” value in data set [1] is reported as “completely hydrolyze”.

`O=C1O[C@H](CO)[C@H](O)[C@H]1O` [Xylonolactone]: the “hydrolysis” value in data set [1] was “not hydrolyzed”.

For `O=C1O[C@H](CO)[C@@H](O[C@@H]2O[C@H](CO)[C@@H](O)[C@H](O)[C@H]2O)[C@H](O)[C@H]1O` [D-Cellobiono-δ-lactone], the “hydrolysis” value in data set [1] is “completely hydrolyze”.

Regarding `O=C1O[C@H](CO)[C@@H](O)[C@H](O)[C@H]1O` [D-Glucono-δ-lactone], the “hydrolysis” value in data set [1] is recorded as “completely hydrolyze”. In [2], the “lactonase activity on gluconolactone” value is given as “confirmed”. Also, the “equilibrium constant between glucono-δ-lactone and gluconic acid” value in data set [3] (favoring gluconic acid) was 7.7. The half-life result in data set [3] (in water at room temperature and pH 5.0) is recorded as “approximately 1 hour”.

B1: S. thermophile aldonolactonase 1: extracellular aldonolactonase purified from S. thermophile culture broth, encoded by Spoth11109678 (SEQ ID NO: 1) (protein)
chain: MRTSYGVAFALSAGFRLATAAPVCGGGSASDLLWVTTYPAGEGAQGKLLTLKLDGSKLVVAESDTCGPYPSWLTQAGDVLYCVDEAWGGDHGTLHSLKINDDHSFTNLSQHETVGGPVSTVIYGKDGLGLAVADYAGGGIDTFNIADPAAIKLIKSLVYPAPTDGLPDPQNSARPHEAILDPTGEFLVFPDLGADQIRVLKVDKETLEYVEKPSYTDFDRGTGPRHGAFFKSGDKTFFYLVGELSNLLQGFSVAYNDDDSLTFTRIHNSTTHGDDKPLPEDTAAAELWIAPGSNFLTLSSRFESSLEYTVANGTKVPSDPLITFSIDKETGALTHVQSAPAGGINPRHFSFNSDGTRVASALQSDGRVVVFERDPSTGKIGKATAEGDVEGMPNFATFKQ
modifications: Sporotrichum thermophile; extracellular aldonolactonase 1
In data set [4], B1 yielded a change in activity of 3 fold. Further, in data set [5], the “activity relative to that reported for lactonases isolated from other filamentous fungi” value is “approximately 20 fold”. Further, the stability result in [6] (50° C. (growth condition for production of the enzyme)) was “stable for several days”. Also, in data set [6] (stored at −80° C.), the “storage stability of aldonolactonase activity” value was “stable for several months”.

B2: S. thermophile aldonolactonase 1 (Thermothelomyces thermophilus) (protein)
chain: APVCGGGSASDLLWVTTYPAGEGAQGKLLTLKLDGSKLEVVAESDTCGPYPSWLTQAGDVLYCVDEAWGGDHGTLHSLKINDDHSFTNLSQHETVGGPVSTVIYGKDGLGLAVADYAGGGIDTFNIADPAAIKLIKSLVYPAPTDGLPDPQNSARPHEAILDPTGEFLVFPDLGADQIRVLKVDKETLEYVEKPSYTDFDRGTGPRHGAFFKSGDKTFFYLVGELSNLLQGFSVAYNDDDSLTFTRIHNSTTHGDDKPLPEDTAAAELWIAPGSNFLTLSSRFESSLEYTVANGTKVPSDPLITFSIDKETGALTHVQSAPAGGINPRHFSFNSDGTRVASALQSDGRVVVFERDPSTGKIGKATAEGDVEGMPNFATFKQ
In the case of B2, the figures for the Km in data set [7], in [8] (setting [10]) and in [9] were 21.6 mM, 20.3 mM and 5.9 mM, respectively. For the same molecule, the figures for the kcat in [7], in [8] (setting [10]) and in data set [9] were 29100 s⁻¹, 11700 s⁻¹ and 7400 s⁻¹, respectively. In addition, the kcat/Km turned out to be 1.35e+06 ± 120000 M⁻¹ s⁻¹ in data set [7]; 600000 M⁻¹ s⁻¹ in data set [8] (other: 25° C. and pH 5.0); 580000 M⁻¹ s⁻¹ in data set [8] (setting [10]); 1.25e+06 ± 520000 M⁻¹ s⁻¹ in data set [9].
